From paper PMC3198426 come the findings set out here.

Test [1] has as its target Mitochondrial antiviral signaling protein (MAVS), as HAVI-Fluc-MAVS and Rluc-MAVS-Flag, Q7Z434. The test can be described thus: pull-down; DLR-PD (dual luciferase reporter pull-down): both proteins co-expressed in HEK293; lysate in passive lysis buffer on Streptavidin MagneSphere Paramagnetic Particles in PBS, 30 m to 1 h, room temperature; two washes PBS with 1% Nonidet P 40, one with PBS; the biotinylated HAVI-tagged protein is held, Fluc and Rluc activity read on the beads; in some samples eYFP-MAVS or other activators (IRF3) or HCV …. The settings on record: remark: other sources report otherwise. On the technique in general: In a reporter assay the amount or activity of a reporter protein is the signal.

Test [2] concerns the target MAVS cleaved by HCV NS3/4A (HAVI-Fluc-MAVS and Rluc-MAVS co-expressed with NS3/4A). The test is described as follows: pull-down; DLR-PD (dual luciferase reporter pull-down): both proteins co-expressed in HEK293; lysate in passive lysis buffer on Streptavidin MagneSphere Paramagnetic Particles in PBS, 30 m to 1 h, room temperature; two washes PBS with 1% Nonidet P 40, one with PBS; the biotinylated HAVI-tagged protein is held, Fluc and Rluc activity read on the beads; in some samples eYFP-MAVS or other activators (IRF3) or HCV NS3/4A (MAVS) co-expressed.

The target of test [3] is T1, Interferon regulatory factor 3 (IRF3), as HAVI-Fluc-IRF3 and Rluc-IRF3-Flag, Q14653.
T1 chain: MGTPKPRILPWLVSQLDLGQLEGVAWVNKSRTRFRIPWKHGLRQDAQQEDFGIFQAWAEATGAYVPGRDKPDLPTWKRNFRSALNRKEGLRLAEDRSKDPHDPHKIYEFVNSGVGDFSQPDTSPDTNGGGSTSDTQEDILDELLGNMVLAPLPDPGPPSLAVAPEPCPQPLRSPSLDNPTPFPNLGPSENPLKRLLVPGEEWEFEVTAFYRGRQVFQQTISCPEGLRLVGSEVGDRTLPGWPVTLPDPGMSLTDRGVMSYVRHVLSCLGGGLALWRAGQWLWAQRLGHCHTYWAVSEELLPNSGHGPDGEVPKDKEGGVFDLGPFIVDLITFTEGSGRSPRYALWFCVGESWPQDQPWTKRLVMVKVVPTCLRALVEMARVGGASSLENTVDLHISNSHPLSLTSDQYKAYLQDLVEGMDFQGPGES
The test can be described thus: pull-down; DLR-PD (dual luciferase reporter pull-down): both proteins co-expressed in HEK293; lysate in passive lysis buffer on Streptavidin MagneSphere Paramagnetic Particles in PBS, 30 m to 1 h, room temperature; two washes PBS with 1% Nonidet P 40, one with PBS; the biotinylated HAVI-tagged protein is held, Fluc and Rluc activity read on the beads; in some samples eYFP-MAVS or other activators (IRF3) or HCV …. The settings on record: remark: other sources report otherwise.

B1: Rluc-TRAF3-Flag, Q13114 1-568 (natural protein)
chain: MESSKKMDSPGALQTNPPLKLHTDRSAGTPVFVPEQGGYKEKFVKTVEDKYKCEKCHLVLCSPKQTECGHRFCESCMAALLSSSSPKCTACQESIVKDKVFKDNCCKREILALQIYCRNESRGCAEQLMLGHLLVHLKNDCHFEELPCVRPDCKEKVLRKDLRDHVEKACKYREATCSHCKSQVPMIALQKHEDTDCPCVVVSCPHKCSVQTLLRSELSAHLSECVNAPSTCSFKRYGCVFQGTNQQIKAHEASSAVQHVNLLKEWSNSLEKKVSLLQNESVEKNKSIQSLHNQICSFEIEIERQKEMLRNNESKILHLQRVIDSQAEKLKELDKEIRPFRQNWEEADSMKSSVESLQNRVTELESVDKSAGQVARNTGLLESQLSRHDQMLSVHDIRLADMDLRFQVLETASYNGVLIWKIRDYKRRKQEAVMGKTLSLYSQPFYTGYFGYKMCARVYLNGDGMGKGTHLSLFFVIMRGEYDALLPWPFKQKVTLMLMDQGSSRRHLGDAFKPDPNSSSFKKPTGEMNIASGCPVFVAQTVLENGTYIKDDTIFIKVIVDTSDLPDP
modifications: here or on the partner: biotin on a specific lysine residue of the Avi tag (by co-expressed BirA), on the HAVI-Fluc copy
On to B1, for which, in test [1], the activity ratio of Rluc/Fluc on the beads (Rluc/Fluc activity ratio) amounted to 2.29, the fold of the percentage of Rluc on the beads over the three negative controls is greater than 26 fold and the percentage of Rluc on the beads compared with the cell lysate stood at 1.85%.

B2: Rluc-TRAF3-Flag (natural protein)
chain: MESSKKMDSPGALQTNPPLKLHTDRSAGTPVFVPEQGGYKEKFVKTVEDKYKCEKCHLVLCSPKQTECGHRFCESCMAALLSSSSPKCTACQESIVKDKVFKDNCCKREILALQIYCRNESRGCAEQLMLGHLLVHLKNDCHFEELPCVRPDCKEKVLRKDLRDHVEKACKYREATCSHCKSQVPMIALQKHEDTDCPCVVVSCPHKCSVQTLLRSELSAHLSECVNAPSTCSFKRYGCVFQGTNQQIKAHEASSAVQHVNLLKEWSNSLEKKVSLLQNESVEKNKSIQSLHNQICSFEIEIERQKEMLRNNESKILHLQRVIDSQAEKLKELDKEIRPFRQNWEEADSMKSSVESLQNRVTELESVDKSAGQVARNTGLLESQLSRHDQMLSVHDIRLADMDLRFQVLETASYNGVLIWKIRDYKRRKQEAVMGKTLSLYSQPFYTGYFGYKMCARVYLNGDGMGKGTHLSLFFVIMRGEYDALLPWPFKQKVTLMLMDQGSSRRHLGDAFKPDPNSSSFKKPTGEMNIASGCPVFVAQTVLENGTYIKDDTIFIKVIVDTSDLPDP
For B2, the activity ratio of Rluc/Fluc on the beads (100 ng NS3/4A vector) (Rluc/Fluc activity ratio) in test [2] worked out at 0.956.

B3: Mitochondrial antiviral signaling protein (MAVS), as HAVI-Fluc-MAVS and Rluc-MAVS-Flag, Q7Z434 1-540 (natural protein)
chain: MPFAEDKTYKYICRNFSNFCNVDVVEILPYLPCLTARDQDRLRATCTLSGNRDTLWHLFNTLQRRPGWVEYFIAALRGCELVDLADEVASVYQSYQPRTSDRPPDPLEPPSLPAERPGPPTPAAAHSIPYNSCREKEPSYPMPVQETQAPESPGENSEQALQTLSPRAIPRNPDGGPLESSSDLAALSPLTSSGHQEQDTELGSTHTAGATSSLTPSRGPVSPSVSFQPLARSTPRASRLPGPTGSVVSTGTSFSSSSPGLASAGAAEGKQGAESDQAEPIICSSGAEAPANSLPSKVPTTLMPVNTVALKVPANPASVSTVPSKLPTSSKPPGAVPSNALTNPAPSKLPINSTRAGMVPSKVPTSMVLTKVSASTVPTDGSSRNEETPAAPTPAGATGGSSAWLDSSSENRGLGSELSKPGVLASQVDSPFSGCFEDLAISASTSLGMGPCHGPEENEYKSEGTFGIHVAENPSIQLLEGNPGPPADPDGGPRPQADRKFQEREVPCHRPSPGALWLQVAVTGVLVVTLLVVLYRRRLH
modifications: here or on the partner: biotin on a specific lysine residue of the Avi tag (by co-expressed BirA), on the HAVI-Fluc copy; biotin on a specific lysine residue of the Avi tag (by co-expressed BirA), on the HAVI-Fluc copy
For the molecule B3, in test [1], the activity ratio of Rluc/Fluc on the beads (Rluc/Fluc activity ratio) was 0.28, the fold of the percentage of Rluc on the beads over the three negative controls is greater than 6 fold and the percentage of Rluc on the beads compared with the cell lysate was found to be 0.13%.

B4: Interferon regulatory factor 3 (IRF3), as HAVI-Fluc-IRF3 and Rluc-IRF3-Flag, Q14653 1-427 (natural protein)
chain: MGTPKPRILPWLVSQLDLGQLEGVAWVNKSRTRFRIPWKHGLRQDAQQEDFGIFQAWAEATGAYVPGRDKPDLPTWKRNFRSALNRKEGLRLAEDRSKDPHDPHKIYEFVNSGVGDFSQPDTSPDTNGGGSTSDTQEDILDELLGNMVLAPLPDPGPPSLAVAPEPCPQPLRSPSLDNPTPFPNLGPSENPLKRLLVPGEEWEFEVTAFYRGRQVFQQTISCPEGLRLVGSEVGDRTLPGWPVTLPDPGMSLTDRGVMSYVRHVLSCLGGGLALWRAGQWLWAQRLGHCHTYWAVSEELLPNSGHGPDGEVPKDKEGGVFDLGPFIVDLITFTEGSGRSPRYALWFCVGESWPQDQPWTKRLVMVKVVPTCLRALVEMARVGGASSLENTVDLHISNSHPLSLTSDQYKAYLQDLVEGMDFQGPGES
modifications: here or on the partner: biotin on a specific lysine residue of the Avi tag (by co-expressed BirA), on the HAVI-Fluc copy; biotin on a specific lysine residue of the Avi tag (by co-expressed BirA), on the HAVI-Fluc copy
In the case of B4, in test [3], the activity ratio of Rluc/Fluc on the beads (10 ng MAVS vector, as the sentence says) (Rluc/Fluc activity ratio) turned out to be 0.01; the activity ratio of Rluc/Fluc on the beads (100 ng MAVS vector) (Rluc/Fluc activity ratio) worked out at 0.75; the fold increase of the IRF3 dimerization ratio (overexpressed IKKε) was less than 1000 fold; the fold of the percentage of Rluc on the beads over the negative control (10 ng of the MAVS vector) came out at 27 fold.
